Results on 4 substances are retold here after patent publication US20060252116A1, “Icam-4 binding sites” (priority 2002, published 2006).

Assay [1] has as its target α4β1 integrin (VLA-4) (UniProt P13612). The assay can be described thus: HEL cell adhesion to coated human ICAM-4Fc (2.5 ug/ml); value is for the MIXTURE of SEQ ID NO: 9, 10 and 11, each peptide 750 uM.
Assay [2] has the same target. The assay can be described thus: HEL cell adhesion to coated human ICAM-4Fc (2.5 ug/ml); value is for the MIXTURE with control peptide SEQ ID NO: 13, each peptide 750 uM.
For assay [3] the target is unchanged. The assay can be described thus: HEL cell adhesion to coated human ICAM-4Fc (2.5 ug/ml), peptide 750 uM; competitor human ICAM-4Fc.
Assay [4] has the same target. The assay can be described thus: HEL cell adhesion to coated human ICAM-4Fc (2.5 ug/ml); value is for the MIXTURE of SEQ ID NO: 10 and 11, each peptide 750 uM.
Assay [5] shares this target. Nature of the assay: HEL cell adhesion to coated human ICAM-4Fc (2.5 ug/ml); value is for the MIXTURE of SEQ ID NO: 9, 11 and control peptide 13, each peptide 750 uM.
Assay [6] has the same target. The assay can be described thus: HEL cell adhesion to coated human ICAM-4Fc (2.5 ug/ml); value is for the MIXTURE of SEQ ID NO: 10, 11 and control peptide 13, each peptide 750 uM.
The target is the same in assay [7]. The assay can be described thus: HEL cell adhesion to coated human ICAM-4Fc (2.5 ug/ml); value is for the MIXTURE of SEQ ID NO: 9 and 11, each peptide 750 uM.
Assay [8] has the same target. Nature of the assay: HEL cell adhesion to coated human ICAM-4Fc (5 ug/ml); value is for the MIXTURE with control peptide SEQ ID NO: 13, each peptide 500 uM.
Assay [9] has the same target. Nature of the assay: HEL cell adhesion to coated human ICAM-4Fc (5 ug/ml); value is for the MIXTURE of SEQ ID NO: 9 and 10, each peptide 500 uM.
Assay [10] shares this target. The assay can be described thus: HEL cell adhesion to coated murine ICAM-4Fc (5 ug/ml); value is for the MIXTURE of SEQ ID NO: 9 and 10, each peptide 500 uM.
For assay [11] the target is unchanged. Nature of the assay: HEL cell adhesion to coated human ICAM-4Fc (5 ug/ml), peptide 500 uM; competitor human ICAM-4Fc.
Assay [12] shares this target. Nature of the assay: HEL cell adhesion to coated murine ICAM-4Fc (5 ug/ml); value is for the MIXTURE with control peptide SEQ ID NO: 13, each peptide 500 uM.
The target is the same in assay [13]. The assay can be described thus: HEL cell adhesion to coated human ICAM-4Fc (2.5 ug/ml); value is for the MIXTURE of SEQ ID NO: 9, 10 and control peptide 13, each peptide 750 uM.
Assay [14] has the same target. Nature of the assay: HEL cell adhesion to coated murine ICAM-4Fc (5 ug/ml), peptide 500 uM; competitor murine ICAM-4Fc.
For assay [15] the target is unchanged. The assay can be described thus: HEL cell adhesion to coated human ICAM-4Fc (2.5 ug/ml); value is for the MIXTURE of SEQ ID NO: 9 and 10, each peptide 750 uM.
Assay [16] shares this target. Nature of the assay: HEL cell adhesion to coated human NCAMFc (control), no peptide.

Chain of α4β1 integrin (VLA-4) (P13612 34-1032, chain 1 of 2): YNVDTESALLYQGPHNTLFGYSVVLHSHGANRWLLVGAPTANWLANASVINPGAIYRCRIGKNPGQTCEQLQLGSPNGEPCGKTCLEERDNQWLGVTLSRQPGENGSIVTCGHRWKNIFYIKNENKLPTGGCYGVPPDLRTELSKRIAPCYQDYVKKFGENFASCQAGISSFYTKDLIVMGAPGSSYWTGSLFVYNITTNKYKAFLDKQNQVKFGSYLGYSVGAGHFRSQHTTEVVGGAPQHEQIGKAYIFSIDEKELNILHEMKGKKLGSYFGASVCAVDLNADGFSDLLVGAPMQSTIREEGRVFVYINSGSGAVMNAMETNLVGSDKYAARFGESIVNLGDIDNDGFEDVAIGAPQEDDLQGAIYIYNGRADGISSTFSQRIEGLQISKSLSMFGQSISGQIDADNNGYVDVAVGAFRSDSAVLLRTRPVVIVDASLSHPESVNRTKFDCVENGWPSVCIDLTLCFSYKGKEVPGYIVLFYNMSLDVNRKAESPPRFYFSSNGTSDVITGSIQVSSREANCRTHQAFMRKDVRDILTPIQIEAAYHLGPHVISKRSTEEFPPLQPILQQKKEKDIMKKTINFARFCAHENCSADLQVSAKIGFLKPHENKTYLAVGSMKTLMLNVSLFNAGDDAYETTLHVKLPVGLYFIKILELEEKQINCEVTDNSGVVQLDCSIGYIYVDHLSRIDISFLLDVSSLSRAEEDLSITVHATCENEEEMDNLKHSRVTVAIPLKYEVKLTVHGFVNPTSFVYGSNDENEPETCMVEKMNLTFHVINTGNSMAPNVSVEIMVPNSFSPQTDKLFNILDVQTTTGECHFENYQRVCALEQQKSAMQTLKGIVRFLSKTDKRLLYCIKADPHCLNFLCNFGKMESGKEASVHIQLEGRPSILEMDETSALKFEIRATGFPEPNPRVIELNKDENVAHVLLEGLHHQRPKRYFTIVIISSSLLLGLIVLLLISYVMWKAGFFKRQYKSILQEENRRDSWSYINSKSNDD
Chain of α4β1 integrin (VLA-4) (P05556 21-798, chain 2 of 2, further chain): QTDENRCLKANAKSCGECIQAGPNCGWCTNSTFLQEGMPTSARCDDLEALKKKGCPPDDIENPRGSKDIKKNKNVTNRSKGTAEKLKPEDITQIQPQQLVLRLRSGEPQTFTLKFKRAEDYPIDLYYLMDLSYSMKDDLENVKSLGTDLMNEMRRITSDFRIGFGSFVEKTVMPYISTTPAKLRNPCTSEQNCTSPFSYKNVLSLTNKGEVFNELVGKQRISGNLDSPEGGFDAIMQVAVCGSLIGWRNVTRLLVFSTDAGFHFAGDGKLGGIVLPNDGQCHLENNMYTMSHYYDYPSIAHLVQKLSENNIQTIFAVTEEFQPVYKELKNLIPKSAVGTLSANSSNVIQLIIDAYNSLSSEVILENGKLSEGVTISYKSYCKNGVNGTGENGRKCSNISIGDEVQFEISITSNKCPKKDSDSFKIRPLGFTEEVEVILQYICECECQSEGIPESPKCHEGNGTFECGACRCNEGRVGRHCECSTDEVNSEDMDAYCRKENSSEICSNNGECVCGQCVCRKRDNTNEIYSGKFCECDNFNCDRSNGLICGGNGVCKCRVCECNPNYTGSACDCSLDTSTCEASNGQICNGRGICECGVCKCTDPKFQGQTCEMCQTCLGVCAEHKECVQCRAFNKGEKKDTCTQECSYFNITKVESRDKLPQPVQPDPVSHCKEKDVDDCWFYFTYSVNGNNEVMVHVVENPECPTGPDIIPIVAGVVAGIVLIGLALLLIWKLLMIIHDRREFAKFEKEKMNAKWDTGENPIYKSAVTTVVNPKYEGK

With aWssLahcl peptide (SEQ ID NO: 11), the input cells bound as % of binding to ICAM-4Fc in the absence of peptides with α4β1 integrin (VLA-4) [1] was found to be 42%; with α4β1 integrin (VLA-4) [2], 46%; in the assay with α4β1 integrin (VLA-4) [3], 50%; with α4β1 integrin (VLA-4) [4], 41%; in the assay with α4β1 integrin (VLA-4) [5] it was 42%; with α4β1 integrin (VLA-4) [6] it was 40%. Further, the input cells bound as % of binding to ICAM-4Fc in the absence of peptides with α4β1 integrin (VLA-4) [7] came to 43%.
On to tRwATSRit peptide (SEQ ID NO: 10), for which the input cells bound as % of binding to ICAM-4Fc in the absence of peptides was 42% with α4β1 integrin (VLA-4) [1]; 55% with α4β1 integrin (VLA-4) [2]; 56% with α4β1 integrin (VLA-4) [8]; 58% with α4β1 integrin (VLA-4) [3]; 35% in the assay with α4β1 integrin (VLA-4) [9]; 41% with α4β1 integrin (VLA-4) [4]. In addition, the input cells bound as % of binding to ICAM-4Fc in the absence of peptides worked out at 40% in the assay with α4β1 integrin (VLA-4) [6], 58% in the assay with α4β1 integrin (VLA-4) [11], 49% with α4β1 integrin (VLA-4) [13] and 52% in the assay with α4β1 integrin (VLA-4) [15]. Further, the input cells bound as % of binding to murine ICAM-4Fc in the absence of peptides with α4β1 integrin (VLA-4) [10] stood at 47%; with α4β1 integrin (VLA-4) [12] it was 55%; with α4β1 integrin (VLA-4) [14] it was 58%.
Take “human NCAMFc (from UniProt P13591 20-718) (Fc fusion)”: in the assay with α4β1 integrin (VLA-4) [16], the input cells bound as % of binding to ICAM-4Fc in the absence of peptides is 3% and the input cells bound as % of binding to murine ICAM-4Fc in the absence of peptides worked out at 19%.
As for svpFWVrms peptide (SEQ ID NO: 9), the input cells bound as % of binding to ICAM-4Fc in the absence of peptides with α4β1 integrin (VLA-4) [1] worked out at 42%; in the assay with α4β1 integrin (VLA-4) [2], 59%; with α4β1 integrin (VLA-4) [8], 60%; in the assay with α4β1 integrin (VLA-4) [3], 64%; in the assay with α4β1 integrin (VLA-4) [9], 35%; with α4β1 integrin (VLA-4) [5], 42%. The input cells bound as % of binding to ICAM-4Fc in the absence of peptides was 61% in the assay with α4β1 integrin (VLA-4) [11], 43% with α4β1 integrin (VLA-4) [7], 49% with α4β1 integrin (VLA-4) [13] and 52% with α4β1 integrin (VLA-4) [15]. For the same substance, the input cells bound as % of binding to murine ICAM-4Fc in the absence of peptides with α4β1 integrin (VLA-4) [10] turned out to be 47%; in the assay with α4β1 integrin (VLA-4) [12], 70%; with α4β1 integrin (VLA-4) [14], 67%.
